Experimental data as given in paper doi:10.1101/2021.10.29.466387 (bioRxiv, 2021).
“And” between values parts separate entries of the source, which are not always exact repeats. Equal entries are not always repeated.

Legend:
[1] = biological target: the molecule itself; assay: native gel or EMSA
[2] = biological target: the molecule itself; assay: SDS-PAGE of samples folded in detergent micelles

| Protein | stoichiometry N [1] | stoichiometry N [2] |
| --- | --- | --- |
| FLAG-OmpC (natural protein) AEVYNKDGNKLDLYGKVDGLHYFSDNKDVDGDQTYMRLGFKGETQVTDQLTGYGQWEYQIQGNSAENENNSWTRVAFAGLKFQDVGSFDYGRNYGVVYDVTSWTDVLPEFGGDTYGSDNFMQQRGNGFATYRNTDFFGLVDGLNFAVQYQGKNGNPSGEGFTSGVTNNGRDALRQNGDGVGGSITYDYEGFGIGGAISSSKRTDAQNTAAYIGNGDRAETYTGGLKYDANNIYLAAQYTQTYNATRVGSLGWANKAQNFEAVAQYQFDFGLRPSLAYLQSKGKNLGRGYDDEDILKYVDVGATYYFNKNMSTYVDYKINLLDDNQFTRDAGINTDNIVALGLVYQF | 2 and 3 |  |
| OmpC-His6 (natural protein) AEVYNKDGNKLDLYGKVDGLHYFSDNKDVDGDQTYMRLGFKGETQVTDQLTGYGQWEYQIQGNSAENENNSWTRVAFAGLKFQDVGSFDYGRNYGVVYDVTSWTDVLPEFGGDTYGSDNFMQQRGNGFATYRNTDFFGLVDGLNFAVQYQGKNGNPSGEGFTSGVTNNGRDALRQNGDGVGGSITYDYEGFGIGGAISSSKRTDAQNTAAYIGNGDRAETYTGGLKYDANNIYLAAQYTQTYNATRVGSLGWANKAQNFEAVAQYQFDFGLRPSLAYLQSKGKNLGRGYDDEDILKYVDVGATYYFNKNMSTYVDYKINLLDDNQFTRDAGINTDNIVALGLVYQF |  | 3 |
| ^35S-labelled OmpC (natural protein, ^35S-methionine label) MKVKVLSLLVPALLVAGAANAAEVYNKDGNKLDLYGKVDGLHYFSDNKDVDGDQTYMRLGFKGETQVTDQLTGYGQWEYQIQGNSAENENNSWTRVAFAGLKFQDVGSFDYGRNYGVVYDVTSWTDVLPEFGGDTYGSDNFMQQRGNGFATYRNTDFFGLVDGLNFAVQYQGKNGNPSGEGFTSGVTNNGRDALRQNGDGVGGSITYDYEGFGIGGAISSSKRTDAQNTAAYIGNGDRAETYTGGLKYDANNIYLAAQYTQTYNATRVGSLGWANKAQNFEAVAQYQFDFGLRPSLAYLQSKGKNLGRGYDDEDILKYVDVGATYYFNKNMSTYVDYKINLLDDNQFTRDAGINTDNIVALGLVYQF | 3 |  |
| ^35S-labelled OmpC(Y286A) (natural protein, ^35S-methionine label) MKVKVLSLLVPALLVAGAANAAEVYNKDGNKLDLYGKVDGLHYFSDNKDVDGDQTYMRLGFKGETQVTDQLTGYGQWEYQIQGNSAENENNSWTRVAFAGLKFQDVGSFDYGRNYGVVYDVTSWTDVLPEFGGDTYGSDNFMQQRGNGFATYRNTDFFGLVDGLNFAVQYQGKNGNPSGEGFTSGVTNNGRDALRQNGDGVGGSITYDYEGFGIGGAISSSKRTDAQNTAAYIGNGDRAETYTGGLKYDANNIYLAAQYTQTYNATRVGSLGWANKAQNFEAVAQAQFDFGLRPSLAYLQSKGKNLGRGYDDEDILKYVDVGATYYFNKNMSTYVDYKINLLDDNQFTRDAGINTDNIVALGLVYQF | 3 |  |
| OmpF (natural protein) AEIYNKDGNKVDLYGKAVGLHYFSKGNGENSYGGNGDMTYARLGFKGETQINSDLTGYGQWEYNFQGNNSEGADAQTGNKTRLAFAGLKYADVGSFDYGRNYGVVYDALGYTDMLPEFGGDTAYSDDFFVGRVGGVATYRNSNFFGLVDGLNFAVQYLGKNERDTARRSNGDGVGGSISYEYEGFGIVGAYGAADRTNLQEAQPLGNGKKAEQWATGLKYDANNIYLAANYGETRNATPITNKFTNTSGFANKTQDVLLVAQYQFDFGLRPSIAYTKSKAKDVEGIGDVDLVNYFEVGATYYFNKNMSTYVDYIINQIDSDNKLGVGSDDTVAVGIVYQF | 3 and 2 |  |
